# Test results taken from publication PMC5290284, “Portal protein functions akin to a DNA-sensor that couples genome-packaging to icosahedral capsid maturation” (Nature Communications, 2017).
# T1: P22 MV-portal rings coupled to CNBr-activated Sepharose beads (bacteriophage P22, UniProt P26744 1-725)
# T1 construct: Portal protein (gp1) of bacteriophage P22; Mature virion conformation; also called MV-portal protein; MV-portal beads; source: E. coli BL21 (DE3), purified (Ni-agarose, Superose 12); copies: 12
# T1 sequence (looked up): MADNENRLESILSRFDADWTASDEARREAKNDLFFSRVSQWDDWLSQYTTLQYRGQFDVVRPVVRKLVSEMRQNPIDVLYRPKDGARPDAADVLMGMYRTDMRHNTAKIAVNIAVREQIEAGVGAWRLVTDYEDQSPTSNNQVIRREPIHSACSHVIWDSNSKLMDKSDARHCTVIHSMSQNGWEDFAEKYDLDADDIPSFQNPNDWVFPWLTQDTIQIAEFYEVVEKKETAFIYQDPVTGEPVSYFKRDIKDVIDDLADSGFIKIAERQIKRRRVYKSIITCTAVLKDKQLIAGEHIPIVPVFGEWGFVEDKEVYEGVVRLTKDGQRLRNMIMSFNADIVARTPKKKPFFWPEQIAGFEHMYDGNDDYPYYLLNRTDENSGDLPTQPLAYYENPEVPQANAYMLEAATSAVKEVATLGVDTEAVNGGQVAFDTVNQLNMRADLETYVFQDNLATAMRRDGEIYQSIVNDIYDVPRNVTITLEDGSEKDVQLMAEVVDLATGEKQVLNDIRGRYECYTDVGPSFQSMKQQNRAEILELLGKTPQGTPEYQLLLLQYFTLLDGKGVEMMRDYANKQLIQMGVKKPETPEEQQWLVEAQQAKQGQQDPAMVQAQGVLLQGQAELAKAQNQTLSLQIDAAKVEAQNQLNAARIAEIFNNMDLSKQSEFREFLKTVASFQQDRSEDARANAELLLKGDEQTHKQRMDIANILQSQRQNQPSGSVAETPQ
# T2: P22 PC-portal rings coupled to CNBr-activated Sepharose beads (bacteriophage P22, UniProt P26744 1-725)
# T2 construct: Portal protein (gp1) of bacteriophage P22; Procapsid conformation; also called PC-portal protein; PC-portal beads; source: E. coli BL21 (DE3), purified (Ni-NTA, Superose 6); copies: 12
# T2 sequence (looked up): T1 sequence (looked up)
# B1: P22 PC-portal protein core (res. 1–602), procapsid conformation (domain or fragment, bacteriophage P22, UniProt P26744 1-602, looked up)
# chain: MADNENRLESILSRFDADWTASDEARREAKNDLFFSRVSQWDDWLSQYTTLQYRGQFDVVRPVVRKLVSEMRQNPIDVLYRPKDGARPDAADVLMGMYRTDMRHNTAKIAVNIAVREQIEAGVGAWRLVTDYEDQSPTSNNQVIRREPIHSACSHVIWDSNSKLMDKSDARHCTVIHSMSQNGWEDFAEKYDLDADDIPSFQNPNDWVFPWLTQDTIQIAEFYEVVEKKETAFIYQDPVTGEPVSYFKRDIKDVIDDLADSGFIKIAERQIKRRRVYKSIITCTAVLKDKQLIAGEHIPIVPVFGEWGFVEDKEVYEGVVRLTKDGQRLRNMIMSFNADIVARTPKKKPFFWPEQIAGFEHMYDGNDDYPYYLLNRTDENSGDLPTQPLAYYENPEVPQANAYMLEAATSAVKEVATLGVDTEAVNGGQVAFDTVNQLNMRADLETYVFQDNLATAMRRDGEIYQSIVNDIYDVPRNVTITLEDGSEKDVQLMAEVVDLATGEKQVLNDIRGRYECYTDVGPSFQSMKQQNRAEILELLGKTPQGTPEYQLLLLQYFTLLDGKGVEMMRDYANKQLIQMGVKKPETPEEQQWLVEAQQAKQG
# notes: Portal protein (gp1) of bacteriophage P22, core, residues 1–602; Asymmetric dodecamer; also called PC-portal core; portal-602; copies: 12
# B2: P22 tail factor gp4 (natural protein, bacteriophage P22, UniProt P26746 1-166, looked up)
# chain: MQIKTKGDLVRAALRKLGVASDATLTDVEPQSMQDAVDDLEAMMAEWYQDGKGIITGYVFSDDENPPAEGDDHGLRSSAVSAVFHNLACRIAPDYALEATAKIIATAKYGKELLYKQTAISRAKRAPYPSRMPTGSGNSFANLNEWHYFPGEQNADSTTPHDEGNG
# notes: Tail factor gp4 of bacteriophage P22; source: E. coli BL21 (DE3), purified (Ni-agarose, Superdex 75)
# Experiments:
# [1] = target: the molecule itself; experiment: crystal structure; PC-portal core at 10 mg/ml, 5% PEG 8,000, 10 mM caesium chloride, pH 5.6, 22 °C; 3.30 Å; whole dodecamer in the asymmetric unit
# [2] = target: T1, P22 MV-portal rings coupled to …; experiment: pull-down; PC- or MV-portal rings immobilized on CNBr-activated Sepharose 4B beads; soluble protein added (L-terminase pre-complexed with non-hydrolyzable ATP); bound and unbound fractions on SDS–PAGE; details: both partners purified
# [3] = target: T2, P22 PC-portal rings coupled to …; experiment: as above; details: both partners purified
Binder,stoichiometry N [1],stoichiometry N [2],stoichiometry N [3]
B1,12 protomers,–,–
B2,–,11 ± 1 gp4 equivalents,11.4 ± 1 gp4 equivalents
